Data published in patent publication EP4692114A1, “CALCITONIN ANALOGUE, AND DERIVATIVE THEREOF AND USE THEREOF” (Hangzhou Sciwind Biosciences Co., Ltd., priority 2023, dated 2024).
*1 amine or outer side, *2 acyl side, *3 side chain or, on linkers, in order; H or OH if unused. Primed or numbered codes have the meaning given here. The star is where a group is joined. C20 diacid = O=C(O)CCCCCCCCCCCCCCCCCCC(=O)*; C18 diacid = O=C(O)CCCCCCCCCCCCCCCCC(=O)*; γGlu = O=C(O)[C@H](CCC(=O)[*:2])N[*:1]; βAsp = O=C(O)[C@H](CC(=O)[*:2])N[*:1]; Inp′ = not defined here; Trx′ = not defined here; AEEA = NCCOCCOCC(=O)O

T1: human amylin receptor (AMY3) on CHO-K1/Gal5/AMY3 cells (human, UniProt P30988 25-474; O60896 24-148)
T1 sequence (looked up) 1: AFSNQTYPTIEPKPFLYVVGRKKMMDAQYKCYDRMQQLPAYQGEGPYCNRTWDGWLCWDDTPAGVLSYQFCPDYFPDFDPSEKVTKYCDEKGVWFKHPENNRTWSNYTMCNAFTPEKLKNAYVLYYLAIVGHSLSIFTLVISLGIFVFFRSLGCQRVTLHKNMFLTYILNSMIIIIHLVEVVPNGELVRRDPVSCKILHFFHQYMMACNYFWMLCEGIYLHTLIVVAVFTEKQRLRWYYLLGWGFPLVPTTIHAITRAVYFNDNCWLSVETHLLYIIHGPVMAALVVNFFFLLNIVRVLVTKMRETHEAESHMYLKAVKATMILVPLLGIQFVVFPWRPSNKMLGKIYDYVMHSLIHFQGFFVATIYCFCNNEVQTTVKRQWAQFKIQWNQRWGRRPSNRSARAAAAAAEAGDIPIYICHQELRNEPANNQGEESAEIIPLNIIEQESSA
T1 sequence (looked up) 2: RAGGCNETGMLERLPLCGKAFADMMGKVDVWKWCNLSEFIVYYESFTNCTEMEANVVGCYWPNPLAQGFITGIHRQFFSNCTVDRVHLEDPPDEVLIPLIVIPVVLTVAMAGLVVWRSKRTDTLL

B1: calcitonin derivative M28 (peptide)
peptide: {C20 diacid-γGlu}-SSQLSTSVLGRLSQELHRLQDYPRTDVGSGSP-NH2
SMILES: CC(C)C[C@H](NC(=O)[C@H](CCCNC(=N)N)NC(=O)CNC(=O)[C@H](CC(C)C)NC(=O)[C@@H](NC(=O)[C@H](CO)NC(=O)[C@@H](NC(=O)[C@H](CO)NC(=O)[C@H](CC(C)C)NC(=O)[C@H](CCC(N)=O)NC(=O)[C@H](CO)NC(=O)[C@H](CO)NC(=O)CC[C@H](NC(=O)CCCCCCCCCCCCCCCCCCC(=O)O)C(=O)O)[C@@H](C)O)C(C)C)C(=O)N[C@@H](CO)C(=O)N[C@@H](CCC(N)=O)C(=O)N[C@@H](CCC(=O)O)C(=O)N[C@@H](CC(C)C)C(=O)N[C@@H](Cc1c[nH]cn1)C(=O)N[C@@H](CCCNC(=N)N)C(=O)N[C@@H](CC(C)C)C(=O)N[C@@H](CCC(N)=O)C(=O)N[C@@H](CC(=O)O)C(=O)N[C@@H](Cc1ccc(O)cc1)C(=O)N1CCC[C@H]1C(=O)N[C@@H](CCCNC(=N)N)C(=O)N[C@H](C(=O)N[C@@H](CC(=O)O)C(=O)N[C@H](C(=O)NCC(=O)N[C@@H](CO)C(=O)NCC(=O)N[C@@H](CO)C(=O)N1CCC[C@H]1C(N)=O)C(C)C)[C@@H](C)O
B2: calcitonin derivative M13 (peptide)
peptide: {C20 diacid-γGlu}-ASQLSTAVLGRLSQELHRLEDYPRTDVGSGSP-NH2
SMILES: CC(C)C[C@H](NC(=O)[C@H](CCCNC(=N)N)NC(=O)CNC(=O)[C@H](CC(C)C)NC(=O)[C@@H](NC(=O)[C@H](C)NC(=O)[C@@H](NC(=O)[C@H](CO)NC(=O)[C@H](CC(C)C)NC(=O)[C@H](CCC(N)=O)NC(=O)[C@H](CO)NC(=O)[C@H](C)NC(=O)CC[C@H](NC(=O)CCCCCCCCCCCCCCCCCCC(=O)O)C(=O)O)[C@@H](C)O)C(C)C)C(=O)N[C@@H](CO)C(=O)N[C@@H](CCC(N)=O)C(=O)N[C@@H](CCC(=O)O)C(=O)N[C@@H](CC(C)C)C(=O)N[C@@H](Cc1c[nH]cn1)C(=O)N[C@@H](CCCNC(=N)N)C(=O)N[C@@H](CC(C)C)C(=O)N[C@@H](CCC(=O)O)C(=O)N[C@@H](CC(=O)O)C(=O)N[C@@H](Cc1ccc(O)cc1)C(=O)N1CCC[C@H]1C(=O)N[C@@H](CCCNC(=N)N)C(=O)N[C@H](C(=O)N[C@@H](CC(=O)O)C(=O)N[C@H](C(=O)NCC(=O)N[C@@H](CO)C(=O)NCC(=O)N[C@@H](CO)C(=O)N1CCC[C@H]1C(N)=O)C(C)C)[C@@H](C)O
B3: calcitonin derivative M27 (peptide)
peptide: {C20 diacid-γGlu}-ISQLSTIVLGRLSQELHRLQDYPRTDVGSGSP-NH2
SMILES: CC[C@H](C)[C@H](NC(=O)CC[C@H](NC(=O)CCCCCCCCCCCCCCCCCCC(=O)O)C(=O)O)C(=O)N[C@@H](CO)C(=O)N[C@@H](CCC(N)=O)C(=O)N[C@@H](CC(C)C)C(=O)N[C@@H](CO)C(=O)N[C@H](C(=O)N[C@H](C(=O)N[C@H](C(=O)N[C@@H](CC(C)C)C(=O)NCC(=O)N[C@@H](CCCNC(=N)N)C(=O)N[C@@H](CC(C)C)C(=O)N[C@@H](CO)C(=O)N[C@@H](CCC(N)=O)C(=O)N[C@@H](CCC(=O)O)C(=O)N[C@@H](CC(C)C)C(=O)N[C@@H](Cc1c[nH]cn1)C(=O)N[C@@H](CCCNC(=N)N)C(=O)N[C@@H](CC(C)C)C(=O)N[C@@H](CCC(N)=O)C(=O)N[C@@H](CC(=O)O)C(=O)N[C@@H](Cc1ccc(O)cc1)C(=O)N1CCC[C@H]1C(=O)N[C@@H](CCCNC(=N)N)C(=O)N[C@H](C(=O)N[C@@H](CC(=O)O)C(=O)N[C@H](C(=O)NCC(=O)N[C@@H](CO)C(=O)NCC(=O)N[C@@H](CO)C(=O)N1CCC[C@H]1C(N)=O)C(C)C)[C@@H](C)O)C(C)C)[C@@H](C)CC)[C@@H](C)O
B4: calcitonin derivative M44 (peptide)
peptide: {C18 diacid}-DASQLSTAVLGRLSDELHRLQDYPRTDVGSGSP-NH2
SMILES: CC(C)C[C@H](NC(=O)[C@H](CCCNC(=N)N)NC(=O)CNC(=O)[C@H](CC(C)C)NC(=O)[C@@H](NC(=O)[C@H](C)NC(=O)[C@@H](NC(=O)[C@H](CO)NC(=O)[C@H](CC(C)C)NC(=O)[C@H](CCC(N)=O)NC(=O)[C@H](CO)NC(=O)[C@H](C)NC(=O)[C@H](CC(=O)O)NC(=O)CCCCCCCCCCCCCCCCC(=O)O)[C@@H](C)O)C(C)C)C(=O)N[C@@H](CO)C(=O)N[C@@H](CC(=O)O)C(=O)N[C@@H](CCC(=O)O)C(=O)N[C@@H](CC(C)C)C(=O)N[C@@H](Cc1c[nH]cn1)C(=O)N[C@@H](CCCNC(=N)N)C(=O)N[C@@H](CC(C)C)C(=O)N[C@@H](CCC(N)=O)C(=O)N[C@@H](CC(=O)O)C(=O)N[C@@H](Cc1ccc(O)cc1)C(=O)N1CCC[C@H]1C(=O)N[C@@H](CCCNC(=N)N)C(=O)N[C@H](C(=O)N[C@@H](CC(=O)O)C(=O)N[C@H](C(=O)NCC(=O)N[C@@H](CO)C(=O)NCC(=O)N[C@@H](CO)C(=O)N1CCC[C@H]1C(N)=O)C(C)C)[C@@H](C)O
B5: calcitonin derivative M14 (peptide)
peptide: {C20 diacid-γGlu}-ASQLSTAVLGRLSQELHRLEEYPRTDVGSGSP-NH2
SMILES: CC(C)C[C@H](NC(=O)[C@H](CCCNC(=N)N)NC(=O)CNC(=O)[C@H](CC(C)C)NC(=O)[C@@H](NC(=O)[C@H](C)NC(=O)[C@@H](NC(=O)[C@H](CO)NC(=O)[C@H](CC(C)C)NC(=O)[C@H](CCC(N)=O)NC(=O)[C@H](CO)NC(=O)[C@H](C)NC(=O)CC[C@H](NC(=O)CCCCCCCCCCCCCCCCCCC(=O)O)C(=O)O)[C@@H](C)O)C(C)C)C(=O)N[C@@H](CO)C(=O)N[C@@H](CCC(N)=O)C(=O)N[C@@H](CCC(=O)O)C(=O)N[C@@H](CC(C)C)C(=O)N[C@@H](Cc1c[nH]cn1)C(=O)N[C@@H](CCCNC(=N)N)C(=O)N[C@@H](CC(C)C)C(=O)N[C@@H](CCC(=O)O)C(=O)N[C@@H](CCC(=O)O)C(=O)N[C@@H](Cc1ccc(O)cc1)C(=O)N1CCC[C@H]1C(=O)N[C@@H](CCCNC(=N)N)C(=O)N[C@H](C(=O)N[C@@H](CC(=O)O)C(=O)N[C@H](C(=O)NCC(=O)N[C@@H](CO)C(=O)NCC(=O)N[C@@H](CO)C(=O)N1CCC[C@H]1C(N)=O)C(C)C)[C@@H](C)O
B6: calcitonin derivative M12 (peptide)
peptide: {C20 diacid-γGlu}-ASQLSTAVLGRLSTELHRLQDYPRTDVGSGSP-NH2
SMILES: CC(C)C[C@H](NC(=O)[C@H](CCCNC(=N)N)NC(=O)CNC(=O)[C@H](CC(C)C)NC(=O)[C@@H](NC(=O)[C@H](C)NC(=O)[C@@H](NC(=O)[C@H](CO)NC(=O)[C@H](CC(C)C)NC(=O)[C@H](CCC(N)=O)NC(=O)[C@H](CO)NC(=O)[C@H](C)NC(=O)CC[C@H](NC(=O)CCCCCCCCCCCCCCCCCCC(=O)O)C(=O)O)[C@@H](C)O)C(C)C)C(=O)N[C@@H](CO)C(=O)N[C@H](C(=O)N[C@@H](CCC(=O)O)C(=O)N[C@@H](CC(C)C)C(=O)N[C@@H](Cc1c[nH]cn1)C(=O)N[C@@H](CCCNC(=N)N)C(=O)N[C@@H](CC(C)C)C(=O)N[C@@H](CCC(N)=O)C(=O)N[C@@H](CC(=O)O)C(=O)N[C@@H](Cc1ccc(O)cc1)C(=O)N1CCC[C@H]1C(=O)N[C@@H](CCCNC(=N)N)C(=O)N[C@H](C(=O)N[C@@H](CC(=O)O)C(=O)N[C@H](C(=O)NCC(=O)N[C@@H](CO)C(=O)NCC(=O)N[C@@H](CO)C(=O)N1CCC[C@H]1C(N)=O)C(C)C)[C@@H](C)O)[C@@H](C)O
B7: calcitonin derivative M53 (peptide)
peptide: {C20 diacid-βAsp}-ASQLSTAVLGRLSEELHRLQDYPRTDVGSGSP-NH2
SMILES: CC(C)C[C@H](NC(=O)[C@H](CCCNC(=N)N)NC(=O)CNC(=O)[C@H](CC(C)C)NC(=O)[C@@H](NC(=O)[C@H](C)NC(=O)[C@@H](NC(=O)[C@H](CO)NC(=O)[C@H](CC(C)C)NC(=O)[C@H](CCC(N)=O)NC(=O)[C@H](CO)NC(=O)[C@H](C)NC(=O)C[C@H](NC(=O)CCCCCCCCCCCCCCCCCCC(=O)O)C(=O)O)[C@@H](C)O)C(C)C)C(=O)N[C@@H](CO)C(=O)N[C@@H](CCC(=O)O)C(=O)N[C@@H](CCC(=O)O)C(=O)N[C@@H](CC(C)C)C(=O)N[C@@H](Cc1c[nH]cn1)C(=O)N[C@@H](CCCNC(=N)N)C(=O)N[C@@H](CC(C)C)C(=O)N[C@@H](CCC(N)=O)C(=O)N[C@@H](CC(=O)O)C(=O)N[C@@H](Cc1ccc(O)cc1)C(=O)N1CCC[C@H]1C(=O)N[C@@H](CCCNC(=N)N)C(=O)N[C@H](C(=O)N[C@@H](CC(=O)O)C(=O)N[C@H](C(=O)NCC(=O)N[C@@H](CO)C(=O)NCC(=O)N[C@@H](CO)C(=O)N1CCC[C@H]1C(N)=O)C(C)C)[C@@H](C)O

Target: T1, human amylin receptor (AMY3) on …
Assay: cell-based or functional assay

EC50/nM, CRE-luciferase in amylin receptor/CRE-luc CHO cells [nM] | Binder
0.017 | B1
0.015 | {C20 diacid-Trx′-AEEA-AEEA}-ASQLSTAVLGRLSEELHRLQDYPRTDVGSGSP-NH2 (reading uncertain) [calcitonin derivative M61]
0.017 | B2
0.016 | {C20 diacid-Inp′-AEEA-AEEA}-ASQLSTAVLGRLSEELHRLQDYPRTDVGSGSP-NH2 [calcitonin derivative M62]
0.016 | B3
0.119 | {C18 diacid-Trx′}-ASQLSTAVLGRLSDELHRLQDYPRTDVGSGSP-NH2 (reading uncertain) [calcitonin derivative M46]
0.016 | B4
0.017 | B5
0.017 | B6
0.017 | B7
